Data as given in PMC10602137 (2023).

T1: GAD65 peptide on HLA-DRA*01:01 / HLA-DRB1*04:01 (human)
T1 peptide: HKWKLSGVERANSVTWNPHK

T2: influenza M protein (Influenza A MP54; also given MP74) peptide on HLA-DRA*01:01 / HLA-DRB1*04:01 (human)
T2 peptide: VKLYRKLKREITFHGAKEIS

B1: Clone_81 (TCR)
alpha TRAV29DV5 TRAJ45 CDR3: CAASRYSGGGADGLTF
beta TRBV12-4 TRBJ1-1 CDR3: CASSPQGGNTEAFF
B2: Clone_566 (TCR)
alpha TRAV29DV5 TRAJ45 CDR3: CAASRYSGGGADGLTF
beta TRBV12-4 TRBJ1-1 CDR3: CASSVQGGNTEAFF
B3: P196-1 (TCR)
alpha TRAV29DV5 TRAJ45 CDR3: CAASRYSGGGADGLTF
beta TRBV12-4 TRBJ1-1 CDR3: CASSLQGGNTEAFF

Molecular target: T1, GAD65 peptide on HLA-DRA*01:01 / …
Assay: proliferation

**Q.** Does B1 bind?
**A.** recognises

**Q.** Does B2 bind?
**A.** recognises

**Q.** Does B3 bind?
**A.** recognises

Molecular target: T2, influenza M protein (Influenza A MP54; …)
Assay: proliferation

**Q.** Does B1 bind?
**A.** recognises

**Q.** Does B2 bind?
**A.** recognises

**Q.** Does B3 bind?
**A.** recognises
